The values below come from publication PMC3552326.

Test [1] addresses Dns100-α-synuclein (L100C, dansyl-labelled) (human) (UniProt P37840). Put plainly: other fluorescence titration.
Test [2] concerns the target Dns136-α-synuclein (Y136C, dansyl-labelled) (human) (UniProt P37840). Put plainly: FRET or BRET. For orientation: BRET reads energy transfer from a luciferase to a nearby fluorophore.
Test [3] addresses Dns100-α-synuclein (L100C, dansyl-labelled) (human) (UniProt P37840). As to the kind of experiment: FRET or BRET.
For test [4], the target named is Dns136-α-synuclein (Y136C, dansyl-labelled) (human) (UniProt P37840). Put plainly: other fluorescence titration.
Test [5] shares this target. Put plainly: other fluorescence titration. This is another data set of the same source.
Test [6] deals with α-synuclein peptide residues 118–140 containing C136, dansyl-labelled (DnsC23) (human) (UniProt P37840). As to the kind of experiment: other fluorescence titration.
Test [7] concerns the target Dns100-α-synuclein (L100C, dansyl-labelled) (human) (UniProt P37840). As to the kind of experiment: other fluorescence titration. The source holds these as a separate data set.
Test [8] deals with Dns136-α-synuclein (Y136C, dansyl-labelled) (human) (UniProt P37840). Put plainly: other fluorescence titration. This is another data set of the same source.

Like-named read-outs stand apart in the source and are kept apart here.

In general, Kd refers to the equilibrium constant for the complex coming apart. A high value points to a looser complex. As to “glucocerebrosidase (taliglucerase alfa, recombinant GCase) (from UniProt P04062 40-533) (enzyme)”, the Kd in test [1] stood at 1 µM; in test [4], 11 µM; in test [5], 8 µM; in test [6] it was 2 µM; in test [7] it was 40 µM; in test [8], 1 µM. In addition, the <λ> shift in test [2] came out at 6 nm; in test [3], 2 nm.
